What was measured:
Details in all cases: both partners purified
[1] = molecular target: recombinant influenza B HA (B/Brisbane/60/08) (Influenza B virus B/Brisbane/60/2008, UniProt C0LT35, strain); assay: ELISA
[2] = molecular target: recombinant influenza A H1 HA (A/Brisbane/59/07) (Influenza A virus A/Brisbane/59/2007 …, UniProt D5F1Q8, strain); assay: ELISA
[3] = molecular target: T1, recombinant HA of pH1N1 A/California/04/2009 (Influenza A virus A/California/04/2009 …, UniProt C3W5S1, strain); assay: SPR
T1 construct: source: bought: Protein Sciences Corp., Meriden, CT

[4] = molecular target: recombinant HA of A/USSR/1977 H1N1 (Influenza A virus A/USSR/90/1977 …, UniProt P03453, strain); assay: mPLEX-Flu multiplex fluorescent-bead assay (Luminex)
[5] = molecular target: recombinant HA of A/South Carolina/01/1918 H1N1 (Influenza A virus A/South …, UniProt Q9WFX3, strain); assay: as above

B1: KPF1 human monoclonal antibody (antibody, V domains shown)
VH: EVQLLESGGGLVQPGGSLRISCAASGSTFGDFAMSWVRQSPGRGLEWVSVTSAGGDRTYYADSVKGRFTISRDNSKNTLYLQMNSLRGEDTAMYYCARLDSSGFHYGRPGRNWGQGTLVTVSS
VL: DIQMTHSPPSLSASVGDRITITCQASQDISYYLIWYQQKPGKAPKPLIYDASNLEAGVPSRFSASGSGTDFTLTISSLQPEDLATYYCQQYKSLPYTFGQGTKLEIK
notes: also called KPF1 hmAb; hmAb KPF1
binding result [1]: no binding
binding result [2]: binds
Kd [3]: 0.178 nM
binding result [4]: no binding (tested: 1 μg/ml)
binding result [5]: binds

From article PMC5847613 (Scientific Reports, 2018)
